Publication PMC10645843, “Fungal secondary metabolism is governed by an RNA-binding protein CsdA/RsdA complex” (Nature Communications, 2023)

T1: RsdA-His (PFICI_10532), recombinant (Pestalotiopsis fici, UniProt W3WX91 1-730)
T1 construct: RsdA, regulator of secondary metabolism and development, Pestalotiopsis fici, locus PFICI_10532; open reading frame amplified from P. fici cDNA; RsdA-His printed as 80.4 kDa; Printed as RsdA-His; vector pET28a (His6-tag); also called PfRsdA; RsdA-His protein; source: E. coli BL21 (plasmid pYZS42, pET28a), purified (Ni-NTA resin)
T1 sequence (looked up): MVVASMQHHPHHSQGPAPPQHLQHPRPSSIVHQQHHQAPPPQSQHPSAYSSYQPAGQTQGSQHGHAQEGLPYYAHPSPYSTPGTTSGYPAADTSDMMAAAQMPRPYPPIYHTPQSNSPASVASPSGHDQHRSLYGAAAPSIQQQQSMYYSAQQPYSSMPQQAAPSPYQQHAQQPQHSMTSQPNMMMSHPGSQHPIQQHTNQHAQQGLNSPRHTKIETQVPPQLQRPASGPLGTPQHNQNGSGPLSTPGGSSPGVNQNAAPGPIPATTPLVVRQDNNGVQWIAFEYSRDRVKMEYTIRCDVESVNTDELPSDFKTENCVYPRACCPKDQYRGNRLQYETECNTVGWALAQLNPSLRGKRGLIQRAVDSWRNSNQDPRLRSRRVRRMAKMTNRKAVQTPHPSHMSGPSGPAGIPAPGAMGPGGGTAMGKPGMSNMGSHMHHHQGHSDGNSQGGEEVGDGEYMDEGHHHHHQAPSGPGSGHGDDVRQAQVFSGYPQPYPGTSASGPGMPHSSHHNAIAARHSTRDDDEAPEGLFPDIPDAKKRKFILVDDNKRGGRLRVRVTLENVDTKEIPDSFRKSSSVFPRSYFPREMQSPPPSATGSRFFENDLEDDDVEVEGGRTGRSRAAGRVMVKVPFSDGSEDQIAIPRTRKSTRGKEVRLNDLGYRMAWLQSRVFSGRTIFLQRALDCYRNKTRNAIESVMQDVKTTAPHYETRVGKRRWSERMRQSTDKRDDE

T2: GST-CsdA (Pestalotiopsis fici CGMCC3.15140, UniProt W3WSJ8 1-634)
T2 sequence: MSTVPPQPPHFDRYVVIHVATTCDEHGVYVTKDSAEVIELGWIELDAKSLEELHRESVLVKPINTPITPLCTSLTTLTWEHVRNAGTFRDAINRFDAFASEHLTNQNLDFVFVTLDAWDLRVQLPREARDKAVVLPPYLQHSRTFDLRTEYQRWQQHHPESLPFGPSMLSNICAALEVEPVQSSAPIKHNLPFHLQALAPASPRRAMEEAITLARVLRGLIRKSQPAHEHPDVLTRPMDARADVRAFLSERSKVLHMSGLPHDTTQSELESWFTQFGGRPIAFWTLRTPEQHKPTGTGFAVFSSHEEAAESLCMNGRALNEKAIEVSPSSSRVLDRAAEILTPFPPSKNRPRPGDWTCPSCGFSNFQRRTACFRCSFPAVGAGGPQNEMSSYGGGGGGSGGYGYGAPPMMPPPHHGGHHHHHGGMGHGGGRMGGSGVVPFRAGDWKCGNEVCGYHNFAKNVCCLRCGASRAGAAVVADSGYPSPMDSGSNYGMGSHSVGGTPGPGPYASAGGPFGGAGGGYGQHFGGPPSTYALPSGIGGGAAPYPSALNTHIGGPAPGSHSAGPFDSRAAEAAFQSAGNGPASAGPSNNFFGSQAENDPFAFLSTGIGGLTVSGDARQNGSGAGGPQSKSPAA

B1: GST-CsdA (PFICI_10709), recombinant (natural protein, Pestalotiopsis fici, UniProt W3WSJ8 1-634, looked up)
chain: T2 sequence
notes: open reading frame amplified from P. fici cDNA; CsdA said to contain 730 amino acids; GST-CsdA printed as 93.6 kDa; Printed as GST-CsdA; vector pGEX-4T (GST-tag); also called PfCsdA; GST-CsdA protein; source: E. coli BL21 (plasmid pYSZL6, pGEX-4T), purified (GST-tag resin)
B2: rsdA intron 2 5' splice site RNA (EMSA probe) (ssRNA)
RNA: CCAGGGAGGUGAAGAAGUCGGUAUGUUUCACCAGAUGUGAU
B3: 1xGUCGGUAU RNA (ITC) (ssRNA)
RNA: GUCGGUAU
B4: 4xGUCGGUAU RNA (ITC) (ssRNA)
RNA: GUCGGUAUCGUCGGUAUGGUCGGUAUUGUCGGUAU

Experiments:
[1] = target: T1, RsdA-His (PFICI_10532), recombinant; assay: pull-down; His pull-down: RsdA-His (or RsdA^ΔC-terminal-His) held on Ni-NTA resin, purified GST-CsdA or its deletion forms added, overnight at 4 °C; binding buffer 50 mM Tris, 250 mM NaCl, 0.2% glycerol, 5 mM DTT, 0.6% Triton X-100, 1 mM PMSF, pH 7.5; wash with 1% Triton X-100; western blot with anti-His and anti-GST; settings: both partners purified
[2] = target: T2, GST-CsdA; assay: EMSA; EMSA: Beyotime EMSA kit buffer, 20 min at 25 C, 6% polyacrylamide gel; ITC: 200 uM RNA into 50 uM CsdA, 25 C, buffer not stated (protein elution buffer 50 mM Tris, 150 mM NaCl, 10 mM GSH, pH 8.0); settings: protein: recombinant; tags: GST (N-terminal, pGEX-4T; pYSZL6); label: biotin
[3] = target: T2, GST-CsdA; assay: ITC; EMSA: Beyotime EMSA kit buffer, 20 min at 25 C, 6% polyacrylamide gel; ITC: 200 uM RNA into 50 uM CsdA, 25 C, buffer not stated (protein elution buffer 50 mM Tris, 150 mM NaCl, 10 mM GSH, pH 8.0); settings: protein: recombinant; tags: GST (N-terminal, pGEX-4T; pYSZL6)

Row | Binder | Kd [3] [µM] | further results
1 | B1 | – | binding result [1]: binds
2 | B2 | – | binding result [2]: binds
3 | B3 | 19.7 ± 3.67 | –
4 | B4 | 10.5 ± 5.12 | –
